B1: COV2-2096 (antibody, V domains shown)
VH: QVQLVQSGAEVKKPGASVKVSCKASGYTFGSFDINWVRQATGQGLEWMGRMNSNSGNTAYAQKFQGRVTMTRDTSTNTAYMELSSLRSEDTAMYYCARMRSGWPTHGRPDDFWGRGTLVTVSS
VL: QSVLTQAPSASGTPGQRVTISCSGSNSNIGSYTINWYQQLPGTAPKLLIYGNDQRTSGVPDRFSGSKFGTSASLAISGLQSEDENNYYCAVWDDSLNGLVFGGGTKLTVL
B2: COV2-2165 (antibody, V domains shown)
VH: EVQLVESGGGLVQPGGSLRLSCAASGLTVRSNYMTWVRQTPGKGLEWVSVIYSGGSTFYADSVKGRFTISRDNSKNTVYLQMNSLRAEDTAVYYCARDLVTYGLDVWGQGTTVTVSS
VL: DIQLTQSPSFLSASVGDRVTITCRASQGISNYLAWYQQKPGTAPNLLIYAASTLQSGVPSRFSGSGSGTEFTLTISSLQPEDFATYYCQLLNSHPLTFGQGTRLEIK
B3: COV2-2391 (antibody, V domains shown)
VH: B1 VH
VL: B1 VL
B4: COV2-2952 (antibody, V domains shown)
VH: B2 VH
VL: B2 VL
B5: COV2-2130 (antibody, V domains shown)
VH: EVQLVESGGGLVKPGGSLRLSCAASGFTFRDVWMSWVRQAPGKGLEWVGRIKSKIDGGTTDYAAPVKGRFTISRDDSKNTLYLQMNSLKTEDTAVYYCTTAGSYYYDTVGPGLPEGKFDYWGQGTLVTVSS
VL: not shown

The first assay has as its target SARS-CoV-2 S receptor-binding domain (SRBD), residues 319-541 (SARS-CoV-2), P0DTC2. Kind of assay: ELISA on coated antigen. Particulars: remark: other sources report otherwise.
In the case of B1, the EC50 (as a rule, the concentration at which the effect is half-maximal) came out at 1 ng/mL.
On the same count and under the same terms, with B2 the figure was 0.6 ng/mL.

The next assay addresses SARS-CoV-2 RBD (Table A) (SARS-CoV-2), P0DTC2. Kind of assay: ELISA, purified IgG. Particulars: remark: other sources report otherwise. In general terms: ELISA stands for enzyme-linked immunosorbent assay.
B3 returned an ELISA OD 450 nm of 3.65 OD 450 nm.
Turning to B1, the ELISA OD 450 nm was 4.3 OD 450 nm.
Same read-out and setting: with B4 the figure was 3.55 OD 450 nm; with B2, 4.2 OD 450 nm.

In a further assay the target is SARS-CoV Spike trimer (Table A) (SARS-CoV), P59594. Put plainly: ELISA, purified IgG. Particulars: remark: other sources report otherwise.
In turn, B3 came in with an ELISA OD 450 nm of 0.1 OD 450 nm.
Still for that read-out and setting: with B1 the figure was 0.11 OD 450 nm.
The same measure, in the same setting: with B5 the figure was 0.1 OD 450 nm; with B4, 0.15 OD 450 nm; with B2, 0.17 OD 450 nm.

The values are drawn from patent US20210300999A1.
